Laboratory results published in article PMC5098442.

What was measured:
[1] = target: recombinant soluble TACE ECD (human) (UniProt P78536); assay: SPR
[2] = target: soluble TACE M-domain (wild type) (Homo sapiens) (UniProt P78536); assay: SPR

Kd [1]: 2 nM
Kd [2]: 2.3 nM
Substance: MEDI3622 (antibody)
